This is an account of results in PMC3750625.

Test [1] deals with K104C IN 1–105 (Moloney murine leukemia virus). The test is described as follows: SEC; Superdex S-200 of the BMOE-crosslinked reaction mixture of K104C IN 1–105; data not shown. (SEC sorts molecules by how far they enter the pores of the column.)
The target is the same in test [2]. As to the kind of experiment: cross-linking; 50 μM IN 1–105 K104C with 1 mM BMOE (8 Å) or BM(PEG)2 (14.7 Å), 50 mM Tris–HCl pH 7.0, 10 μM ZnSO4, on ice 60 min, quenched with 10 mM DTT; SDS-PAGE.
Test [3] addresses Wild type IN 1–105, the isolated N-terminal domain (NTD) of Moloney murine leukemia virus integrase (Moloney murine leukemia virus) (UniProt P03355). As to the kind of experiment: SEC; Superdex S-200, nondenaturing, 10 mM Tris pH 7.5, 0.5 M NaCl, 1 mM DTT, 5% glycerol; BS3-crosslinked and unmodified IN 1–105 compared.
For test [4] the target is unchanged. The test is described as follows: cross-linking; 56 μM IN 1–105 with 100 μM BS3 (0 to 300 μM tested), 50 mM Hepes pH 7.8, 25°C, 35 min, stopped with 50 mM lysine pH 8.0; SDS-PAGE; monomer and dimer bands digested with trypsin or chymotrypsin and read by LC-MS/MS or MALDI-TOF/TOF.

For orientation: stoichiometry N means the number of molecules, sites or subunits per partner or assembly. Consider K104C IN 1–105 (domain or fragment), for which, in test [1], the stoichiometry N came to 2. In test [2], the crosslinking extent with BM(PEG)2 was 70%, the crosslinking extent with BMOE was found to be 65% and the stoichiometry N is 2.
For the substance “Wild type IN 1–105, the isolated N-terminal domain (NTD) of Moloney murine leukemia virus integrase (from UniProt P03355 2-106) (domain or fragment)”, in test [3], the percent eluting at the position of the dimer came out at 95% and the stoichiometry N was found to be 2. Also, in test [4], the percent of the protein crosslinked is 50% and the stoichiometry N is 2.
